21 sequences from the supplement of paper PMC12764529 can be followed below.

± gives the half width of the 95% confidence interval. Some results are limits rather than exact numbers.

The nature of data set [1]: folding stability dG unfold (combined trypsin and chymotrypsin); higher = more stable. Put shortly: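 Sequencing followed digestion of designed mini-proteins with trypsin and chymotrypsin, each at 11 concentrations in threefold dilutions together with a no-protease condition. The mini-proteins were under 80 residues, had no cysteine, sat in a PA-tagged cDNA display construct, and were kept only if AlphaFold2 dimer inter-PAE was above 15. From the counts, Bayesian fitting gave K50, and unfolding free energy was derived against a sequence-predicted unfolded-state K50 and a shared folded-state K50, per protease or combined.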

Data set [2] is described as follows: folding stability dG unfold from chymotrypsin proteolysis; higher = more stable. As for the experimental part:
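Folding stability of de novo designed mini-proteins (<80 aa, no Cys; designed by TrROS, TrMRF, ProteinMPNN and the joint model) was measured by cDNA display proteolysis with trypsin and chymotrypsin. Each protease was used at 11 concentrations in a threefold dilution series plus a no-protease condition. K50 was inferred by Bayesian fitting of sequencing counts, and dG unfold was derived against a sequence-predicted unfolded-state K50 (Tsuboyama et al. method). Sequences shown include variable-length N-terminal GS-type padding (SAGGSAGG...) inside a display construct carrying a PA tag. Rows were kept only if the AF2 dimer inter-PAE was >15, to exclude likely homo-oligomers.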

In the case of “SAGGSAGGSGEYVVVLLREELPDEERYLRRPVPLDAALEALKEGKLVRSSEGREWRFAEYRPESAGGSAGGS [r12_432_TrMRF]”, the “folding stability dG unfold” value is -0.218 ± 0.28 kcal/mol in data set [1] and -0.0188 ± 0.33 kcal/mol in data set [2].
Taken in the same sequence, the figures for “SAGGSAGGSGMERVEAVREALVPGDPDAVPAPITYDPQTGKLTYSVSDPRVAAALAADPLVSLSAGGSAGGS [r12_623_JUSTAS]” were -0.309 ± 0.19 kcal/mol and 0.333 ± 0.11 kcal/mol.
Taken in the same sequence, the figures for “SAGGSAGGSGMNVKTIKIYSPEGGETTVPVTGTTVTIGGETVTVTSDVVVPVPPTIKSIEVVGSAGGSAGGS [r12_779_JUSTAS]” were 0.277 ± 0.082 kcal/mol and 0.769 ± 0.02 kcal/mol.
Taken in the same sequence, the figures for “SAGGSAGGSGPALANIPPDAKVTVTPLPDDSYLVDIYYPNGPVEYLDVPVGDKWVKFEVEPEKSAGGSAGGS [r20_50_TrMRF]” were less than -1 kcal/mol and -0.749 ± 0.24 kcal/mol.
“SAGGSAGGSKKIVLVLKVKKEKAKEKVEKAKKELEKALPKDYKIKSIEVKYDPETDKVIIVADSAGGSAGGS [r12_308_TrMRF]”: the “folding stability dG unfold” value in data set [1] is -0.0532 ± 0.28 kcal/mol; in data set [2], 0.376 ± 0.49 kcal/mol.
“SAGGSAGGSKKWIPIDSPSEIEDLLEKAPPGGKLKIYNNNGQTEKVPPNEIERTPNHWWIEVDSAGGSAGGS [r12_907_TrROS]”: the “folding stability dG unfold” value is -0.463 ± 0.45 kcal/mol in data set [1] and 0.314 ± 0.17 kcal/mol in data set [2].
The corresponding values for “SAGGSAGGSKWKISVHPPNGNSWKIDPGDTIKELVDQMSKENGWPYHIHVSKEEAEKLGLKPVSAGGSAGGS [r12_379_TrROS]” are -0.0115 ± 0.16 kcal/mol and 0.356 ± 0.13 kcal/mol.
Taken in the same sequence, the figures for “SAGGSAGGSLRPDEEVVAILPNGEKVPFKVESVEVSPDGSVKANLTLPGGKSLGPANLVFKPESAGGSAGGS [r12_735_TrMRF]” were -0.629 ± 0.22 kcal/mol and -0.00357 ± 0.078 kcal/mol.
Taken in the same sequence, the figures for “SAGGSAGGSMKEGTFNSEEEVEELKKKYPNVEVYEDPETNTIHVKIKEESEKEYEEENIKKLKSAGGSAGGS [r20_191_JUSTAS]” were less than -1 kcal/mol and -0.897 ± 0.6 kcal/mol.
With “SAGGSAGGSMLRVEVTLENGEKIEVEIEVPPGEELTLDEILAELKEKYPDLKVTEIKIEFLEPSAGGSAGGS [r12_262_TrROS_Hall]”, the “folding stability dG unfold” value in data set [1] was 3.27 ± 0.28 kcal/mol; in data set [2] it was 2.63 ± 0.22 kcal/mol.
Turning to “SAGGSAGGSMTITIKLDNVKEVEVKFNPETNVVEIKVKVDGKEYVIRMEFVDGKIYITEIKPLSAGGSAGGS [r20_60_TrROS_Hall]”, the results for the “folding stability dG unfold” value in data set [1] and in data set [2] were 4.06 ± 0.28 kcal/mol and 3.68 ± 0.34 kcal/mol, respectively.
Taken in the same sequence, the figures for “SAGGSAGGSMTIVNPGTPETLAATVKETIKAGKKVKVIYVSPDNPEPVAEAEVEGTAEELEKESAGGSAGGS [r12_241_TrMRF]” were -0.49 ± 0.29 kcal/mol and 0.193 ± 0.11 kcal/mol.
Taken in the same sequence, the figures for “SAGGSAGGSMTVDTTYDPSTDRVTLTVTIPAPDGSELVRTVQSTGDPEAAAAAAAAAVAAAAASAGGSAGGS [r20_33_JUSTAS]” were less than -1 kcal/mol and -0.252 ± 0.14 kcal/mol.
The corresponding values for “SAGGSAGGSPAEITREEAVELAYETLPATEPAVFVFADPRLLVVYPDGADPSRNRVVEVPLLDSAGGSAGGS [r12_648_TrMRF]” are -0.741 ± 0.22 kcal/mol and -0.339 ± 0.17 kcal/mol.
Regarding “SAGGSAGGSPGVRVKPVGDHYVVEIPLPPSVPLGRAVFEVEGGYAETVAVDPERGIATVRVPLSAGGSAGGS [r12_675_TrMRF]”, the “folding stability dG unfold” value is -0.352 ± 0.15 kcal/mol in data set [1] and 0.091 ± 0.11 kcal/mol in data set [2].
“SAGGSAGGSPKPKRRTIEFPLKVPPGMSPEDVADELKQQPGFEIDEIDEVDPDEGWVKISVELSAGGSAGGS [r12_712_TrROS]”: the entries for the “folding stability dG unfold” value in data set [1] and in data set [2] were less than -1 kcal/mol and -0.377 ± 0.13 kcal/mol, respectively.
Taken in the same sequence, the figures for “SAGGSAGGSPMPILSASADPGPDGTRTLTLRLGDKTVTFTVPASRPALIPAPADSVISLDPAGSAGGSAGGS [r12_373_TrMRF]” were -0.64 ± 0.16 kcal/mol and -0.467 ± 0.14 kcal/mol.
As for “SAGGSAGGSPPENMKIKIYNPNGEEQTIPVEGVKIRFNGDTHEIPPGDSIPIPPGIDAIEIEKSAGGSAGGS [r12_779_TrROS]”, the entries for the “folding stability dG unfold” value in data set [1] and in data set [2] were 0.0926 ± 0.22 kcal/mol and 0.512 ± 0.084 kcal/mol, respectively.
The corresponding values for “SAGGSAGGSPPESRPFTTDPGPSGEYTAKLLPPDGSSEEVVLPVSQPRTLNVPKDWSFEVLPPSAGGSAGGS [r12_517_JUSTAS]” are -0.338 ± 0.12 kcal/mol and 0.157 ± 0.11 kcal/mol.
The corresponding values for “SAGGSAGGSPPPVPLSTLAVEPDPATGGKFTVLLAYPDGSTRELTSEEEAAALPNFDLERRLASAGGSAGGS [r20_192_JUSTAS]” are -0.0474 ± 0.21 kcal/mol and 0.443 ± 0.2 kcal/mol.
The corresponding values for “SAGGSAGGSQKPTIEKEGGRYYIRNPDNGKSFPINIEREDNEWKFEFGDGEITIPGEFEIQRRSAGGSAGGS [r12_683_TrROS]” are less than -1 kcal/mol and -0.308 ± 0.14 kcal/mol.
